Assay results published in FireProtDB (doi:10.1110/ps.03176803).

Settings: Kitasatospora aureofaciens; pH 7; Thermal; DSC; PIPES 0.03 M; reversible: yes (90-95%); whole UniProt chain shown

B1: Guanyl-specific ribonuclease Sa wild type, P05798 (protein)
chain: DVSGTVCLSALPPEATDTLNLIASDGPFPYSQDGVVFQNRESVLPTQSYGYYHEYTVITPGARTRGTRRIITGEATQEDYYTGDHYATFSLIDQTC
- Tm: 49 °C
- unfolding enthalpy (calorimetric): 92 kcal/mol
- unfolding enthalpy (van 't Hoff): 103 kcal/mol
